Experimental data published in publication doi:10.1101/2025.07.23.666269 (bioRxiv, 2025).

Assays:
[1] = molecular target: recombinant ɸ6 protein P2 (cystovirus ɸ6) (UniProt P11124); assay: MST
[2] = molecular target: recombinant ɸ6 protein P2 (cystovirus ɸ6) (UniProt P11124); assay: asymmetric flow field flow fractionation
[3] = molecular target: recombinant ɸ6 protein P7, full length (cystovirus ɸ6); assay: asymmetric flow field flow fractionation
[4] = molecular target: minor protein P7 of cystovirus ɸ6 (in virion-derived particles) (cystovirus ɸ6); assay: cryo-EM structure
[5] = molecular target: RNA-dependent RNA polymerase P2 of cystovirus ɸ6 (in virion-derived particles) (cystovirus ɸ6) (UniProt P11124); assay: cryo-EM structure
[6] = molecular target: the molecule itself; assay: cryo-EM structure
[7] = molecular target: T1, recombinant ɸ6 protein P1 (cystovirus ɸ6, UniProt P11126 1-769); assay: co-sedimentation
T1 sequence (looked up): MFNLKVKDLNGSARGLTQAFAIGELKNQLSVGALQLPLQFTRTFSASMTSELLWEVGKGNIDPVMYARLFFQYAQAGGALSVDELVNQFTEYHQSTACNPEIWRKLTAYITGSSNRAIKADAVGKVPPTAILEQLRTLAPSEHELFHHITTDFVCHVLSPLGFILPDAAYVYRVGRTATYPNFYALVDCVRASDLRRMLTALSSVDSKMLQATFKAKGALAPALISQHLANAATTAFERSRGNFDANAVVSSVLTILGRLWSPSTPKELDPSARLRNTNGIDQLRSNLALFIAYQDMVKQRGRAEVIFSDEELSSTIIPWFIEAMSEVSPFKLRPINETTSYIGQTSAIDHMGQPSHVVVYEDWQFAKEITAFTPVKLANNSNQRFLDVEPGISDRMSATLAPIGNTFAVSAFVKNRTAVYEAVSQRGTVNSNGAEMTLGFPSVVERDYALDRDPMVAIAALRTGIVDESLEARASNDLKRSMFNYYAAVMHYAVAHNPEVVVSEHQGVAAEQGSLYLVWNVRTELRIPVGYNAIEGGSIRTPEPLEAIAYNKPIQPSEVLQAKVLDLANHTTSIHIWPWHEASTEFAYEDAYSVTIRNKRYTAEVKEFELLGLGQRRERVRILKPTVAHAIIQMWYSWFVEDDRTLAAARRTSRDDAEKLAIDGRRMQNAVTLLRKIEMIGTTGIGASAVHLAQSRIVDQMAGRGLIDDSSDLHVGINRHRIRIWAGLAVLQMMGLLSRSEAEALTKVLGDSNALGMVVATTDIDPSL

## C-terminally truncated P7 comprising residues 2–115 (domain or fragment)
[1]
  Kd: 15.1 µM

## recombinant ɸ6 protein P7, full length (natural protein)
[2]
  stoichiometry N (P7 dimer per P2 monomer): 1
[3]
  stoichiometry N: 2
[1]
  Kd: 1.3 µM

## minor protein P7 of cystovirus ɸ6 (in virion-derived particles) (natural protein)
[4]
  stoichiometry N: 4
[5]
  stoichiometry N (P7 dimers per P2): 4

B1: outer layer protein P8 of cystovirus ɸ6 (in virion-derived particles) (natural protein)
chain: MLLPVVARAAVPAIESAIAATPGLVSRIAAAIGSKVSPSAILAAVKSNPVVAGLTLAQIGSTGYDAYQQLLENHPEVAEMLKDLSFKADEIQPDFIGNLGQYREELELVEDAARFVGGMSNLIRLRQALELDIKYYGLKMQLNDMGYRS
[6]
  stoichiometry N: 3

B2: packaging NTPase P4 of cystovirus ɸ6 (in virion-derived particles) (enzyme, UniProt P11125 2-332, looked up)
chain: PIVVTQAHIDRVGIAADLLDASPVSLQVLGRPTAINTVVIKTYIAAVMELASKQGGSLAGVDIRPSVLLKDTAIFTKPKAKSADVESDVDVLDTGIYSVPGLARKPVTHRWPSEGIYSGVTALMGATGSGKSITLNEKLRPDVLIRWGEVAEAYDELDTAVHISTLDEMLIVCIGLGALGFNVAVDSVRPLLFRLKGAASAGGIVAVFYSLLTDISNLFTQYDCSVVMVVNPMVDAEKIEYVFGQVMASTVGAILCADGNVSRTMFRTNKGRIFNGAAPLAADTHMPSMDRPTSMKALDHTSIASVAPLERGSVDTDDRNSAPRRGANFSL
[6]
  stoichiometry N: 6

B3: recombinant ɸ6 protein P2 (enzyme, cystovirus ɸ6)
chain: PRRAPAFPLSDIKAQMLFANNIKAQQASKRSFKEGAIETYEGLLSVDPRFLSFKNELSRYLTDHFPANVDEYGRVYGNGVRTNFFGMRHMNGFPMIPATWPLASNLKKRADADLADGPVSERDNLLFRAAVRLMFSDLEPVPLKIRKGSSTCIPYFSNDMGTKIEIAERALEKAEEAGNLMLQGKFDDAYQLHQMGGAYYVVYRAQSTDAITLDPKTGKFVSKDRMVADFEYAVTGGEQGSLFAASKDASRLKEQYGIDVPDGFFCERRRTAMGGPFALNAPIMAVAQPVRNKIYSKYAYTFHHTTRLNKEEKVKEWSLCVATDVSDHDTFWPGWLRDLICDELLNMGYAPWWVKLFETSLKLPVYVGAPAPEQGHTLLGDPSNPDLEVGLSSGQGATDLMGTLLMSITYLVMQLDHTAPHLNSRIKDMPSACRFLDSYWQGHEEIRQISKSDDAILGWTKGRALVGGHRLFEMLKEGKVNPSPYMKISYEHGGAFLGDILLYDSRREPGSAIFVGNINSMLNNQFSPEYGVQSGVRDRSKRKRPFPGLAWASMKDTYGACPIYSDVLEAIERCWWNAFGESYRAYREDMLKRDTLELSRYVASMARQAGLAELTPIDLEVLADPNKLQYKWTEADVSANIHEVLMHGVSVEKTERFLRSVMPR
modifications: RED fluorescent dye NT-647-NHS (Monolith Protein Labeling Kit RED-NHS), in the MST only
[7]
  binding result: binds

B4: major capsid protein P1 of cystovirus ɸ6 (in virion-derived particles) (natural protein)
chain: T1 sequence (looked up)
[6]
  stoichiometry N: 2
